According to publication PMC11194072, “Cdc13 exhibits dynamic DNA strand exchange in the presence of telomeric DNA”:

Key:
[1] = target: T1, Cdc13 full-length (Sf9) (Saccharomyces cerevisiae, UniProt P32797 1-924); test: competition; EC50; prebound IR700-Tel30G 2 nM; 25 mM HEPES pH 8.0, 5% glycerol, 50 mM NaOAc, 150 mM NaCl, 7.5 mM MgCl2, 0.01% Tween 20; EMSA/DDE at 30°C; BLI without glycerol at ~23°C; conditions: protein: recombinant; tags: N-terminal SUMO-His6 tag, C-terminal FLAG tag; chain copies: 2; single strand
T1 sequence: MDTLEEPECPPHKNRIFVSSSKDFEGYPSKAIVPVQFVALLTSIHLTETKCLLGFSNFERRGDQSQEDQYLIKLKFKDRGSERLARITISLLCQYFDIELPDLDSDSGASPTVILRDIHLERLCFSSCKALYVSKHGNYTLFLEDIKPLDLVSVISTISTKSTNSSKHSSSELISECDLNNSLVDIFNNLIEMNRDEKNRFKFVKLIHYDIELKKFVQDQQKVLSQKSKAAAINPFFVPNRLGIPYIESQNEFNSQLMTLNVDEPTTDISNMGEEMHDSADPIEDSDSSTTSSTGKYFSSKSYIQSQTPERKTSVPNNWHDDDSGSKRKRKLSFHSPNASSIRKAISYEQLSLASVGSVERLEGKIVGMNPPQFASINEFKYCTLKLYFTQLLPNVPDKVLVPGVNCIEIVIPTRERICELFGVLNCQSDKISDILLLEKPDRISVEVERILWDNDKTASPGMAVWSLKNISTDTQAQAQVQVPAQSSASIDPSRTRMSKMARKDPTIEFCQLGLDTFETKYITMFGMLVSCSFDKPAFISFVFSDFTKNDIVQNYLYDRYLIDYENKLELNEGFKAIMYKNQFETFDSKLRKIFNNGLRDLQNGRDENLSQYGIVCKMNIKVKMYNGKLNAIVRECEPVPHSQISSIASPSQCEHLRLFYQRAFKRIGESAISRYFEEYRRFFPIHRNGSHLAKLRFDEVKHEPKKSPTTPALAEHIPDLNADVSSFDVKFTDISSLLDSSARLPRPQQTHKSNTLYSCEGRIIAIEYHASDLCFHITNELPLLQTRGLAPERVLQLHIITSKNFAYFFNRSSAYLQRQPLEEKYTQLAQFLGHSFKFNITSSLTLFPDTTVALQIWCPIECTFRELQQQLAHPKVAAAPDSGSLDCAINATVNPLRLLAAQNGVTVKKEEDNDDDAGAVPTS

[2] = target: T2, RPA heterotrimer (Rfa1-3) (Saccharomyces cerevisiae, UniProt P22336;P26754;P26755 1-621;1-273;1-122); test: EMSA; 2 nM probe; 25 mM HEPES pH 8.0, 5% glycerol, 50 mM NaOAc, 150 mM NaCl, 7.5 mM MgCl2, 0.01% Tween 20; EMSA/DDE at 30°C; BLI without glycerol at ~23°C; conditions: protein: recombinant, tags: untagged, copies: 1;1;1, single strand
T2 sequence (P22336 whole entry, chain 1 of 3): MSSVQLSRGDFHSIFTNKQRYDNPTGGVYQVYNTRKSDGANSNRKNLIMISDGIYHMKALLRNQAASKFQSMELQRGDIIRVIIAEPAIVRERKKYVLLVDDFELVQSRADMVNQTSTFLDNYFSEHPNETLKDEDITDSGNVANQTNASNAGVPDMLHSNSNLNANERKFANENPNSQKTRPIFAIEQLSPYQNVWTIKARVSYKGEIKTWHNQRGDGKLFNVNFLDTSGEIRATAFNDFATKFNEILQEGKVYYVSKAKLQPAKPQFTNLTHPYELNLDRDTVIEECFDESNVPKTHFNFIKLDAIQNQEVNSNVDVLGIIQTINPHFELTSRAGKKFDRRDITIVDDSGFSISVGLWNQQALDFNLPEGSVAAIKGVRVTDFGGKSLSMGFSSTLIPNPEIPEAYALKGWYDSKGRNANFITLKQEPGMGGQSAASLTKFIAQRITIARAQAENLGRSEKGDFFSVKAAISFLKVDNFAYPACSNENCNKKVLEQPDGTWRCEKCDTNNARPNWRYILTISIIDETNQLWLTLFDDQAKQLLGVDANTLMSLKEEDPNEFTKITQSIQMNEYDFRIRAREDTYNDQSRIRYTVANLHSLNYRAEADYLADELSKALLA
T2 sequence (P26754 whole entry, chain 2 of 3): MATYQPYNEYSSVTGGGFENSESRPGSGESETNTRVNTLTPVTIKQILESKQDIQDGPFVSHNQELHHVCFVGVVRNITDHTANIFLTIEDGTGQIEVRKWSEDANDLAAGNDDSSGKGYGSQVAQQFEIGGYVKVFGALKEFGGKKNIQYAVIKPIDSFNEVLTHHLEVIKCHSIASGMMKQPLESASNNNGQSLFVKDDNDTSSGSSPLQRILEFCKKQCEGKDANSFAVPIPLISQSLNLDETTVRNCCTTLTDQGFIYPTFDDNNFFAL
T2 sequence (P26755 whole entry, chain 3 of 3): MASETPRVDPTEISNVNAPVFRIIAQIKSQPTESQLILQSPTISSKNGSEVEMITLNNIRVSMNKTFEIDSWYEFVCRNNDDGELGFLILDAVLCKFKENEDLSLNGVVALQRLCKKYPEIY

[3] = target: T1, Cdc13 full-length (Sf9); test: EMSA; 2 nM probe; near probe concentration, not a reliable Kd; 25 mM HEPES pH 8.0, 5% glycerol, 50 mM NaOAc, 150 mM NaCl, 7.5 mM MgCl2, 0.01% Tween 20; EMSA/DDE at 30°C; BLI without glycerol at ~23°C; conditions: protein: recombinant; tags: N-terminal SUMO-His6 tag, C-terminal FLAG tag; chain copies: 2; label: 5' IRDye700 or IRDye800; single strand
[4] = target: T3, Cdc13 OB1 (Saccharomyces cerevisiae, UniProt P32797 1-230); test: EMSA; 7.8-1000 nM OB1; 25 mM HEPES pH 8.0, 5% glycerol, 50 mM NaOAc, 150 mM NaCl, 7.5 mM MgCl2, 0.01% Tween 20; EMSA/DDE at 30°C; BLI without glycerol at ~23°C; conditions: protein: recombinant; tags: N-terminal His6-SUMO, C-terminal 3xFLAG; chain copies: 2; label: 5' IRDye700 or IRDye800; single strand
T3 sequence: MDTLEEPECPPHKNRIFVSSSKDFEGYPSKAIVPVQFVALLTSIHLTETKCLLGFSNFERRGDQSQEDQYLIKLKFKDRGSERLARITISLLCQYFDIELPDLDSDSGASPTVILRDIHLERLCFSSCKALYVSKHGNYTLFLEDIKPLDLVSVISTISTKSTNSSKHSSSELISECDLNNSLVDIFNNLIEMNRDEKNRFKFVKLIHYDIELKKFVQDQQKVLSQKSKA

[5] = target: T1, Cdc13 full-length (Sf9); test: EMSA; 2 nM probe; 25 mM HEPES pH 8.0, 5% glycerol, 50 mM NaOAc, 150 mM NaCl, 7.5 mM MgCl2, 0.01% Tween 20; EMSA/DDE at 30°C; BLI without glycerol at ~23°C; conditions: protein: recombinant; tags: N-terminal SUMO-His6 tag, C-terminal FLAG tag; chain copies: 2; label: none, or 5' IRDye700/800; single strand
[6] = target: T2, RPA heterotrimer (Rfa1-3); test: competition; EC50; prebound labelled Poly(dT)30; text also gives 15 nM; 25 mM HEPES pH 8.0, 5% glycerol, 50 mM NaOAc, 150 mM NaCl, 7.5 mM MgCl2, 0.01% Tween 20; EMSA/DDE at 30°C; BLI without glycerol at ~23°C; conditions: protein: recombinant; tags: untagged; copies: 1;1;1; label: none, or 5' IRDye700/800; single strand
[7] = target: T2, RPA heterotrimer (Rfa1-3); test: competition; EC50; prebound labelled Tel30G; 25 mM HEPES pH 8.0, 5% glycerol, 50 mM NaOAc, 150 mM NaCl, 7.5 mM MgCl2, 0.01% Tween 20; EMSA/DDE at 30°C; BLI without glycerol at ~23°C; conditions: protein: recombinant; tags: untagged; copies: 1;1;1; single strand
[8] = target: T2, RPA heterotrimer (Rfa1-3); test: competition; EC50; prebound labelled Poly(dT)30; 25 mM HEPES pH 8.0, 5% glycerol, 50 mM NaOAc, 150 mM NaCl, 7.5 mM MgCl2, 0.01% Tween 20; EMSA/DDE at 30°C; BLI without glycerol at ~23°C; conditions: protein: recombinant; tags: untagged; copies: 1;1;1; single strand
[9] = target: T1, Cdc13 full-length (Sf9); test: EMSA; 2 nM fork; 25 mM HEPES pH 8.0, 5% glycerol, 50 mM NaOAc, 150 mM NaCl, 7.5 mM MgCl2, 0.01% Tween 20; EMSA/DDE at 30°C; BLI without glycerol at ~23°C; conditions: protein: recombinant; tags: N-terminal SUMO-His6 tag, C-terminal FLAG tag; chain copies: 2; fork 1:2, 20 bp duplex, two 25-nt ssDNA arms
[10] = target: T2, RPA heterotrimer (Rfa1-3); test: as above; conditions: protein: recombinant; tags: untagged; copies: 1;1;1; fork 1:2, 20 bp duplex, two 25-nt ssDNA arms
[11] = target: T1, Cdc13 full-length (Sf9); test: EMSA; IR700-Tel50G prebound; 25 mM HEPES pH 8.0, 5% glycerol, 50 mM NaOAc, 150 mM NaCl, 7.5 mM MgCl2, 0.01% Tween 20; EMSA/DDE at 30°C; BLI without glycerol at ~23°C; conditions: protein: recombinant; tags: N-terminal SUMO-His6 tag, C-terminal FLAG tag; chain copies: 2; label: 5' IRDye700; single strand
[12] = target: T4, Cdc13 OB3 (DBD) (Saccharomyces cerevisiae, UniProt P32797 497-694); test: EMSA; 7.5 nM OB3, 2 nM IR700-Tel11G; complex stable to 0.4-50 nM unlabelled Tel11G; 25 mM HEPES pH 8.0, 5% glycerol, 50 mM NaOAc, 150 mM NaCl, 7.5 mM MgCl2, 0.01% Tween 20; EMSA/DDE at 30°C; BLI without glycerol at ~23°C; conditions: protein: recombinant; tags: N-terminal His6; label: none, or 5' IRDye700; single strand
T4 sequence: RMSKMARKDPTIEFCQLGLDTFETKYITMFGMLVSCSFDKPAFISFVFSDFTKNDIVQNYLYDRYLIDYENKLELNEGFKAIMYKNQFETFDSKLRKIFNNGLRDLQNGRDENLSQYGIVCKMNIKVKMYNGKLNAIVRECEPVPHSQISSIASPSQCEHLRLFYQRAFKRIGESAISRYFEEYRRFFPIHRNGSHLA

[13] = target: T5, Cdc13 full-length (E. coli) (Saccharomyces cerevisiae, UniProt P32797 1-924); test: competition; prebound IR700-Tel11G, unlabelled Tel11G competes; EC50 only in figure; 25 mM HEPES pH 8.0, 5% glycerol, 50 mM NaOAc, 150 mM NaCl, 7.5 mM MgCl2, 0.01% Tween 20; EMSA/DDE at 30°C; BLI without glycerol at ~23°C; conditions: protein: recombinant; tags: N-terminal His6-SUMO, C-terminal 3xFLAG; chain copies: 2; label: none, or 5' IRDye700; single strand
T5 sequence: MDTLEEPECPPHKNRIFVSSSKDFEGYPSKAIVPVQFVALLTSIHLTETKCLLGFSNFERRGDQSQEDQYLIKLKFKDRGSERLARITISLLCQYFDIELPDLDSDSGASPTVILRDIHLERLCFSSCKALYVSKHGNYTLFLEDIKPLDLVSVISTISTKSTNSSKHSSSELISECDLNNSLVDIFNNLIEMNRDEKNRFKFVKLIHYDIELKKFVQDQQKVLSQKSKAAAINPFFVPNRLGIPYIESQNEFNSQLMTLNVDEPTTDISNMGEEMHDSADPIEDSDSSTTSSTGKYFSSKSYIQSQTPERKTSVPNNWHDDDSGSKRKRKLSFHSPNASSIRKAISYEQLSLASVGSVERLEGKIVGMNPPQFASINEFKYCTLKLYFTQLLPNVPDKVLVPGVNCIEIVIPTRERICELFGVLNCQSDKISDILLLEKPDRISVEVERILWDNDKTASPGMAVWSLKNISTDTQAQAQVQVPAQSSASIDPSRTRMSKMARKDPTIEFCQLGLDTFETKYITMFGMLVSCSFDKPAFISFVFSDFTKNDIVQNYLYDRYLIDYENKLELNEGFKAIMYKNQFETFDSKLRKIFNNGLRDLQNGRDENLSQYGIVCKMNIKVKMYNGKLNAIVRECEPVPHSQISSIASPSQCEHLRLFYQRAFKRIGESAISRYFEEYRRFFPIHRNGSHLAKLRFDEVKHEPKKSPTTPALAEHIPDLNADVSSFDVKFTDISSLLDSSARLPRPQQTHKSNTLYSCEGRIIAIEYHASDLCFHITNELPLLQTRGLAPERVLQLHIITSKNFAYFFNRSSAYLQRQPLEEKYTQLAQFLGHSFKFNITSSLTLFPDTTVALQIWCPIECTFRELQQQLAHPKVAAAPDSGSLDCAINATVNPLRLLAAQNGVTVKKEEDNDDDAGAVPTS

[14] = target: T1, Cdc13 full-length (Sf9); test: as above; conditions: protein: recombinant; tags: N-terminal SUMO-His6 tag, C-terminal FLAG tag; chain copies: 2; label: none, or 5' IRDye700; single strand

GTGTGGGTGTGGTGTGGGTGTGGTGTGGGTGTGTGGGTGTGGTGTGGGTG (ssDNA) [Tel50G unlabelled (MB1117)]
IC50 [1]: 0.96 nM

CGCCATGCTGATCCGTGTGGTGTGTGTGGG (ssDNA) [Tel30G labelled (MB1930 IR700 / MB1981 IR800)]
apparent K (half saturation) ([2]; label: 5' IRDye700 or IRDye800): 2.4 ± 0.5 nM
apparent K (half saturation) [3]: 3.7 ± 0.3 nM
apparent K (half saturation) [4]: 830 nM

TTTTTTTTTTTTTTTTTTTTTTTTTTTTTT (ssDNA) [Poly(dT)30 (MB464 / MB1755 IR700 / MB1982 IR800)]
apparent K (half saturation) [5]: 26 ± 3 nM
apparent K (half saturation) ([2]; label: none, or 5' IRDye700/800): 7 ± 0.5 nM
IC50 [6]: 15.1 nM

GTGTGGGTGTGGTGTGGGTGTGGTGTGGGT (ssDNA) [Tel30G unlabelled (MB915)]
IC50 [7]: 5.44 nM
IC50 [1]: 0.89 nM
IC50 [8]: 5.1 nM

B1: Tel25G fork (MB1169/MB1170) (mixed)
DNA 1: GGTGTGGTGTGGGTGTGGTGTGGGTGTGTCACTCACATAGCGTTC
DNA 2: GAACGCTATGTGAGTGACACTGGGTGTGGTGTGGGTGTGGTGTGG
apparent K (half saturation) [9]: 3.3 ± 0.5 nM
apparent K (half saturation) [10]: 2.5 ± 0.6 nM

GTGTGGGTGTGGTGTGGGTGTGGTGTGGGTGTGTGGTGTGGTGTGTGTG (ssDNA) [IR700-Tel50G (MB1931)]
binding result [11]: binds

GTGTGGGTGTG (ssDNA) [Tel11G (MB1983 / MB2018 IR700)]
binding result [12]: binds
binding result [13]: binds
binding result [14]: binds
